Assay results from patent US20260242419A1, “A CYCLIC PEPTIDE FOR TRAPPING INTERLEUKIN-1 BETA” (Merck Sharp & Dohme LLC, priority 2023, published 2026).
Starred links: 1 amine or outer side, 2 acyl side, 3 side chain; linkers in the order of their positions; H or OH if unused. Non-standard residues stand in square brackets, D forms with d. Primed or numbered codes have the meaning given here. AEFBz = (S)-2-amino-3-(4-(2-benzamidoethoxy)phenyl)propanoic acid, O=C(NCCOc1ccc(C[C@H](N[*:1])C(=O)[*:2])cc1)c1ccccc1; TyrEtNAc = (2S)-3-[4-(2-acetamidoethoxy)phenyl]-2-amino-propanoic acid, CC(=O)NCCOc1ccc(C[C@H](N[*:1])C(=O)[*:2])cc1; dProc3CH24Pal = (2R,3S)-3-(4-pyridylmethyl)pyrrolidine-2-carboxylic acid, O=C([C@H]1[C@@H](Cc2ccncc2)CCN1[*:1])[*:2]; DabMe3 = [(3S)-3-amino-4-oxo-butyl]-trimethyl-ammonium, C[N+](C)(C)CC[C@H](N[*:1])C(=O)[*:2]; Ala3Isoxa5Me = 3-(5-methylisoxazol-3-yl)alanine, Cc1cc(C[C@H](N[*:1])C(=O)[*:2])no1; 4PyrimAla″ = 3-(pyrimidin-4-yl)alanine, O=C([C@H](Cc1ccncn1)N[*:1])[*:2]; Ala2Oxa = 3-(oxazol-2-yl)alanine, O=C([C@H](Cc1ncco1)N[*:1])[*:2]; dPro(4R-(4-pyridylmethyl)) = O=C(O)[C@H]1C[C@@H](Cc2ccncc2)CN1; Ala(piperidin-4-yl) = O=C([C@H](CC1CCN([*:3])CC1)N[*:1])[*:2]; Trp(βS-Me,4-F) = C[C@@H](c1c[nH]c2cccc(F)c12)[C@H](N)C(=O)O; Bip(4'-COOH) = N[C@@H](Cc1ccc(-c2ccc(C(=O)O)cc2)cc1)C(=O)O; dPro(4R-Bzl(4-F)) = O=C(O)[C@H]1C[C@@H](Cc2ccc(F)cc2)CN1; dPro(3S-(4-F-Bn)) = O=C(O)[C@@H]1NCC[C@@H]1Cc1ccc(F)cc1; Ala(morpholin-4-yl) = N[C@@H](CN1CCOCC1)C(=O)O; Ala(pyrimidin-5-yl) = N[C@@H](Cc1cncnc1)C(=O)O; Phe(4-COOH) = N[C@@H](Cc1ccc(C(=O)O)cc1)C(=O)O; Phe(4-tBu) = CC(C)(C)c1ccc(C[C@H](N)C(=O)O)cc1; Ala(4-Pyridazinyl) = N[C@@H](Cc1ccnnc1)C(=O)O; Ala(2-pyrazinyl) = N[C@@H](Cc1cnccn1)C(=O)O; Phe(3-Cl) = N[C@@H](Cc1cccc(Cl)c1)C(=O)O; Pro(cis-4-F) = O=C(O)[C@@H]1C[C@H](F)CN1; Ala(4-THP) = N[C@@H](CC1CCOCC1)C(=O)O; cisHyp = O=C(O)[C@@H]1C[C@H](O)CN1; d(αMeD) = C[C@@](N)(CC(=O)O)C(=O)O; h4Pal = N[C@@H](CCc1ccncc1)C(=O)O; 3Pal = N[C@@H](Cc1cccnc1)C(=O)O; 4Pal = N[C@@H](Cc1ccncc1)C(=O)O; Dab = NCC[C@H](N)C(=O)O; Aib = CC(C)(N)C(=O)O

Biological target: Recombinant human IL-1β (BioLegend 579404) (human, UniProt P01584 117-269)
Test: cell-based or functional assay

Binder	MRC5 IC50 [nM]
cyclo([AEFBz][4Pal][Phe(4-COOH)]G[Pro(cis-4-F)][Trp(βS-Me,4-F)][Aib]SW[Aib][Ala(pyrimidin-5-yl)]Q[Dab]G[dPro(4R-(4-pyridylmethyl))]) (ring closure inferred; not fully specified (N-terminus); printed as cyclic, AEFBz-4Pal-Phe4COOH-G-Proc4F-SbMeW4F-Aib-S-W-Aib-PyrimAla-Q-Dab-G-dProc4CH24Pal) [SEQ ID NO 308]	0.013
cyclo([TyrEtNAc][4Pal][Phe(4-COOH)]G[Pro(cis-4-F)][Trp(βS-Me,4-F)][Aib]EW[Aib][Phe(3-Cl)]Q[Dab]G[dPro(4R-(4-pyridylmethyl))]) (ring closure inferred; not fully specified (N-terminus)) [SEQ ID NO 309]	0.018
cyclo([TyrEtNAc][4Pal][Phe(4-COOH)]G[Pro(cis-4-F)][Trp(βS-Me,4-F)][Aib]EW[Aib]YQ[Dab]G[dPro(4R-(4-pyridylmethyl))]) (ring closure inferred; not fully specified (N-terminus)) [SEQ ID NO 310]	0.017
cyclo([Phe(4-tBu)][4Pal][Phe(4-COOH)]G[Pro(cis-4-F)][Trp(βS-Me,4-F)][Aib]EW[Aib][Ala(pyrimidin-5-yl)]Q[Dab]G[dPro(4R-(4-pyridylmethyl))]) (ring closure inferred; not fully specified (N-terminus); printed as cyclic, Phe4tButyl-4Pal-Phe4COOH-G-Proc4F-SbMeW4F-Aib-E-W-Aib-PyrimAla-Q-Dab-G-dProc4CH24Pal) [SEQ ID NO 311]	0.017
cyclo([Bip(4'-COOH)][4Pal][Phe(4-COOH)]G[Pro(cis-4-F)][Trp(βS-Me,4-F)][Aib]EW[Aib][4PyrimAla″]Q[Dab]G[dPro(3S-(4-F-Bn))]) (ring closure inferred; not fully specified (N-terminus); printed as cyclic, Bip4CO2H-4Pal-Phe4COOH-G-Proc4F-SbMeW4F-Aib-E-W-Aib-4PyrimAla-Q-Dab-G-dProc3Bn4F) [SEQ ID NO 312]	0.017
cyclo([Bip(4'-COOH)][4Pal][Phe(4-COOH)]G[Pro(cis-4-F)][Trp(βS-Me,4-F)][Aib]SW[d(αMeD)][Ala(4-THP)]Q[Dab]G[dPro(4R-Bzl(4-F))]) (ring closure inferred; not fully specified (N-terminus); printed as cyclic, Bip4CO2H-4Pal-Phe4COOH-G-Proc4F-SbMeW4F-Aib-S-W-daMeD-AlaTHP4-Q-Dab-G-dProc4Bn4F) [SEQ ID NO 313]	0.015
cyclo([Bip(4'-COOH)][4Pal][Phe(4-COOH)]G[Pro(cis-4-F)][Trp(βS-Me,4-F)][Aib]SW[Aib][DabMe3]Q[Dab]G[dPro(4R-Bzl(4-F))]) (ring closure inferred; not fully specified (N-terminus); printed as cyclic, Bip4CO2H-4Pal-Phe4COOH-G-Proc4F-sbMeW4F-Aib-S-W-Aib-DabMe3-Q-Dab-G-dProc4Bn4F) [SEQ ID NO 314]	0.02
cyclo([TyrEtNAc][4Pal][Phe(4-COOH)]G[Pro(cis-4-F)][Trp(βS-Me,4-F)][Aib]EW[Aib][Ala3Isoxa5Me]Q[Dab]G[dPro(4R-(4-pyridylmethyl))]) (ring closure inferred; not fully specified (N-terminus)) [SEQ ID NO 315]	0.018
cyclo([TyrEtNAc][4Pal][Phe(4-COOH)]G[Pro(cis-4-F)][Trp(βS-Me,4-F)][Aib]EW[Aib][Ala2Oxa]Q[Dab]G[dPro(4R-(4-pyridylmethyl))]) (ring closure inferred; not fully specified (N-terminus)) [SEQ ID NO 316]	0.02
cyclo([TyrEtNAc][4Pal][Phe(4-COOH)]G[Pro(cis-4-F)][Trp(βS-Me,4-F)][Aib]EW[Aib]HQ[Dab]G[dPro(4R-(4-pyridylmethyl))]) (ring closure inferred) [SEQ ID NO 317]	0.015
cyclo([TyrEtNAc][4Pal][Phe(4-COOH)]G[Pro(cis-4-F)][Trp(βS-Me,4-F)][Aib]EW[Aib][h4Pal]Q[Dab]G[dPro(4R-(4-pyridylmethyl))]) (ring closure inferred) [SEQ ID NO 318]	0.025
cyclo([Bip(4'-COOH)][4Pal][Phe(4-COOH)]G[Pro(cis-4-F)][Trp(βS-Me,4-F)][Aib]SW[d(αMeD)][Ala(morpholin-4-yl)]Q[Dab]G[dPro(4R-Bzl(4-F))]) (ring closure inferred) [SEQ ID NO 319]	0.017
cyclo([Bip(4'-COOH)][4Pal][Phe(4-COOH)]G[Pro(cis-4-F)][Trp(βS-Me,4-F)][Aib]SW[d(αMeD)][Ala(piperidin-4-yl)]Q[Dab]G[dPro(4R-Bzl(4-F))]) (ring closure inferred) [SEQ ID NO 320]	0.015
cyclo([Bip(4'-COOH)][4Pal][Phe(4-COOH)]G[Pro(cis-4-F)][Trp(βS-Me,4-F)][Aib]SW[d(αMeD)][Ala(2-pyrazinyl)]Q[Dab]G[dPro(4R-Bzl(4-F))]) (ring closure inferred) [SEQ ID NO 321]	0.015
cyclo([Bip(4'-COOH)][4Pal][Phe(4-COOH)]G[Pro(cis-4-F)][Trp(βS-Me,4-F)][Aib]SW[d(αMeD)][Ala(4-Pyridazinyl)]Q[Dab]G[dPro(4R-Bzl(4-F))]) (ring closure inferred) [SEQ ID NO 322]	0.013
cyclo([Bip(4'-COOH)][4Pal][Phe(4-COOH)]G[Pro(cis-4-F)][Trp(βS-Me,4-F)][Aib]SW[d(αMeD)][3Pal]Q[Dab]G[dPro(4R-Bzl(4-F))]) (ring closure inferred) [SEQ ID NO 323]	0.012
cyclo([Bip(4'-COOH)][4Pal][Phe(4-COOH)]G[Pro(cis-4-F)][Trp(βS-Me,4-F)][Aib]SW[d(αMeD)][4Pal]Q[Dab]G[dPro(4R-Bzl(4-F))]) (ring closure inferred) [SEQ ID NO 324]	0.013
cyclo([Bip(4'-COOH)][4Pal][Phe(4-COOH)]G[cisHyp][Trp(βS-Me,4-F)][Aib]SW[Aib][Ala(pyrimidin-5-yl)]Q[Dab]G[dProc3CH24Pal]) (ring closure inferred) [SEQ ID NO 325]	0.027
